What all share (experiment): cell-based or functional assay
The target in test [1] is Activated protein C (UniProt P04070).
For test [2], the target named is T1, Human βFXIIa (Human) (UniProt P00748).
T1 sequence (looked up): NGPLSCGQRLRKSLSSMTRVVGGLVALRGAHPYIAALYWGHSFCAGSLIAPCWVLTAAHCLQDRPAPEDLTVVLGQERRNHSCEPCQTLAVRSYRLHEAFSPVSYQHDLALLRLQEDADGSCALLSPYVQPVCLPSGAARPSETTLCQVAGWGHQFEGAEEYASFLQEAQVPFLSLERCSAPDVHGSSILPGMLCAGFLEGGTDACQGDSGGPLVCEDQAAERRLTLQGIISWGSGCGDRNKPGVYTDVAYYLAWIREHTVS

In test [3] the target is Plasma kallikrein (UniProt P03952).
For test [4], the target named is Plasmin (UniProt P00747).
Test [5] has as its target Thrombin (UniProt P00734).
The target in test [6] is Human αFXIIa (Human) (UniProt P00748).

Here are results for 24 substances from patent US20240132573A1.

Activated protein C, sequence (P04070 43-461): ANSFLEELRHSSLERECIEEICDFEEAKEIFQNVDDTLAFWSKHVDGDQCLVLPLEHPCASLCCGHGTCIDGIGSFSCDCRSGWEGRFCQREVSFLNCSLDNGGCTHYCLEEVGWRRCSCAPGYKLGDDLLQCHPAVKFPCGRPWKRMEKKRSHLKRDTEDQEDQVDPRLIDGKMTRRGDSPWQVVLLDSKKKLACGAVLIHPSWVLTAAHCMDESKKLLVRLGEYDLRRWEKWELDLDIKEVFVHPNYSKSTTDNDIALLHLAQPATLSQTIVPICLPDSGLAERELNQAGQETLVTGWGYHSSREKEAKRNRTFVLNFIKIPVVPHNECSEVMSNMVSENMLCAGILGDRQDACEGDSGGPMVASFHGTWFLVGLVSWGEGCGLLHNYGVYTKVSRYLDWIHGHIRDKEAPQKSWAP
Plasma kallikrein, sequence (P03952 20-638 limits assumed): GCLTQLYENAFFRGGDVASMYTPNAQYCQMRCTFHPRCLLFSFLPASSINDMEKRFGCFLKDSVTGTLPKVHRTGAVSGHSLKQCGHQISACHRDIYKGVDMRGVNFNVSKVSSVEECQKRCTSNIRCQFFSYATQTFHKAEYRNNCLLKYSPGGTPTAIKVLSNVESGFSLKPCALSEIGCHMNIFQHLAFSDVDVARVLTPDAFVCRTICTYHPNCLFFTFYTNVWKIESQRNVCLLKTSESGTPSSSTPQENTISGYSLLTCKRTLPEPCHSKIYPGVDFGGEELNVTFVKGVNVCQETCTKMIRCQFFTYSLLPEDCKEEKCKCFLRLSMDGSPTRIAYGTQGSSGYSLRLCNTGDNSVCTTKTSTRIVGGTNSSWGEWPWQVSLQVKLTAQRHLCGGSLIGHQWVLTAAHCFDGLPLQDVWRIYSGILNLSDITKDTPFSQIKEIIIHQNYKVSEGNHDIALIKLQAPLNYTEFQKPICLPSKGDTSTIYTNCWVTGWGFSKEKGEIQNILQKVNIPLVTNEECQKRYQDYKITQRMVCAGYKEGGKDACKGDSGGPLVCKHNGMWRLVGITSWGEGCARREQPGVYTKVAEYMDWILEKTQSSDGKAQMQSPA
Plasmin, sequence (P00747 97-810 limits assumed): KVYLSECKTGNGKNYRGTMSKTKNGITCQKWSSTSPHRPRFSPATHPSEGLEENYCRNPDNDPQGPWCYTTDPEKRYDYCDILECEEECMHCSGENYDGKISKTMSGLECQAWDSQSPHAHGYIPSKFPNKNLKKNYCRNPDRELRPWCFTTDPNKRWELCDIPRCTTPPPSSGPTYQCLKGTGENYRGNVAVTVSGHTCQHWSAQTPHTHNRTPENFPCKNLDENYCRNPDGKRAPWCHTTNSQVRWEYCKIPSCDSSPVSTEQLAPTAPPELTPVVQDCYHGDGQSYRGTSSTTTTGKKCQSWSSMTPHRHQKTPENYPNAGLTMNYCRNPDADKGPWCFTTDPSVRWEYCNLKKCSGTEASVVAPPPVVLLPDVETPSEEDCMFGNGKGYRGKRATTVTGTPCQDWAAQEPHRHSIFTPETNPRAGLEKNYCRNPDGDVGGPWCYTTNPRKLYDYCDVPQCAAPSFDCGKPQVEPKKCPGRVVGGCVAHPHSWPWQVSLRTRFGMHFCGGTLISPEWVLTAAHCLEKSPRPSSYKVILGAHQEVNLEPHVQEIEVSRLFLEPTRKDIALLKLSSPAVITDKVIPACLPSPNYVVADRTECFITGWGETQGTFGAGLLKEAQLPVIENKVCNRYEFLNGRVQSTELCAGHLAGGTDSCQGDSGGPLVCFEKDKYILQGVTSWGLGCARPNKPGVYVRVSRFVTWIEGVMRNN

With “α1-Antitrypsin variant SEARox* (from UniProt P01009 25-418)”, the percentage inhibition, average (S2366 conversion) in test [1] amounted to 3%. Further, the percentage inhibition, average (L2120 conversion) in test [2] was 6%; in test [3] it was 92%. The substance further had a percentage inhibition, average (I1390 conversion) in test [4] of 13%. Also, in test [5], the percentage inhibition, average (I1140 conversion) was 0%.

As to “α1-Antitrypsin variant SGNRox* (from UniProt P01009 25-418)”, the percentage inhibition, average (S2366 conversion) in test [1] is 1%. Also, the percentage inhibition, average (L2120 conversion) amounted to 5.2% in test [2] and 71.6% in test [3]. In test [4], the percentage inhibition, average (I1390 conversion) is 1%. For the same substance, in test [5], the percentage inhibition, average (I1140 conversion) worked out at 0%.

Consider “α1-Antitrypsin variant SATRox* (from UniProt P01009 25-418)”, for which, in test [1], the percentage inhibition, average (S2366 conversion) was 10%. Also, the percentage inhibition, average (L2120 conversion) amounted to 17% in test [6], 15% in test [2] and 94% in test [3]. The percentage inhibition, average (I1390 conversion) in test [4] was 0%. Also, in test [5], the percentage inhibition, average (I1140 conversion) worked out at 3%.

Consider “α1-Antitrypsin variant SMTRox* (from UniProt P01009 25-418)”, for which the percentage inhibition, average (S2366 conversion) in test [1] is 76.5%. For the same substance, the percentage inhibition, average (L2120 conversion) is 92.5% in test [6], 89.2% in test [2] and 98.7% in test [3]. This substance also registered a percentage inhibition, average (I1390 conversion) in test [4] of 94.5%. In test [5], this substance gave a percentage inhibition, average (I1140 conversion) of 10.3%.

With “α1-Antitrypsin variant SVRKox* (from UniProt P01009 25-418)”, the percentage inhibition, average (S2366 conversion) in test [1] is 4%. The percentage inhibition, average (L2120 conversion) amounted to 2% in test [6], 0% in test [2] and 91% in test [3]. The percentage inhibition, average (I1390 conversion) in test [4] stood at 97%. The substance further displayed a percentage inhibition, average (I1140 conversion) in test [5] of 1%.

“α1-Antitrypsin variant SLLRox*-I (from UniProt P01009 25-418)” had a percentage inhibition, average (S2366 conversion) in test [1] of 2.3%. Moreover, the percentage inhibition, average (L2120 conversion) in test [2] amounted to 40.3%; in test [3], 91.3%. In test [4], the percentage inhibition, average (I1390 conversion) amounted to 66.7%. The same substance registered a percentage inhibition, average (I1140 conversion) in test [5] of 3.7%.

Take “α1-Antitrypsin variant SLLRox*-V (from UniProt P01009 25-418)”: the percentage inhibition, average (S2366 conversion) in test [1] stood at 3%. Moreover, the percentage inhibition, average (L2120 conversion) came out at 47% in test [2] and 97.5% in test [3]. The percentage inhibition, average (I1390 conversion) in test [4] is 68%. The substance also registered a percentage inhibition, average (I1140 conversion) in test [5] of 4.5%.

Turning to “α1-Antitrypsin variant SMTR (from UniProt P01009 25-418)”, the percentage inhibition, average (S2366 conversion) in test [1] was 75%. For the same substance, the percentage inhibition, average (L2120 conversion) came to 88.5% in test [6], 85% in test [2] and 98.5% in test [3]. The substance also registered a percentage inhibition, average (I1390 conversion) in test [4] of 94%. The percentage inhibition, average (I1140 conversion) in test [5] came to 10.5%.

Consider “α1-Antitrypsin variant SWKKox* (from UniProt P01009 25-418)”, for which the percentage inhibition, average (S2366 conversion) in test [1] was 0%. For the same substance, the percentage inhibition, average (L2120 conversion) is 5% in test [2] and 94% in test [3]. Also, in test [4], the percentage inhibition, average (I1390 conversion) was determined as 47%. In test [5], the percentage inhibition, average (I1140 conversion) turned out to be 0%.

Consider “α1-Antitrypsin variant SFNRox* (from UniProt P01009 25-418)”, for which the percentage inhibition, average (S2366 conversion) in test [1] is 5%. The percentage inhibition, average (L2120 conversion) is 5% in test [6], 3% in test [2] and 94% in test [3]. The same substance came in with a percentage inhibition, average (I1390 conversion) in test [4] of 3%. Moreover, in test [5], the percentage inhibition, average (I1140 conversion) was 7%.

With “α1-Antitrypsin variant SPRRox* (from UniProt P01009 25-418)”, the percentage inhibition, average (S2366 conversion) in test [1] stood at 1%. In addition, the results for the percentage inhibition, average (L2120 conversion) in test [6], in test [2] and in test [3] were 1%, 2% and 97%, respectively. The percentage inhibition, average (I1390 conversion) in test [4] stood at 19%. The percentage inhibition, average (I1140 conversion) in test [5] came to 0%.

In test [1], “α1-Antitrypsin variant SNSRox* (from UniProt P01009 25-418)” gave a percentage inhibition, average (S2366 conversion) of 7%. For the same substance, the figures for the percentage inhibition, average (L2120 conversion) in test [2] and in test [3] were 20% and 97%, respectively. In addition, in test [4], the percentage inhibition, average (I1390 conversion) turned out to be 0%. In test [5], this substance returned a percentage inhibition, average (I1140 conversion) of 62%.

“α1-Antitrypsin variant SMTRox*-VVGG (from UniProt P01009 25-418)”: the percentage inhibition, average (S2366 conversion) in test [1] turned out to be 0%. Also, the figures for the percentage inhibition, average (L2120 conversion) in test [2] and in test [3] were 29% and 47%, respectively. This substance also registered a percentage inhibition, average (I1390 conversion) in test [4] of 8%. In test [5], this substance showed a percentage inhibition, average (I1140 conversion) of 1%.

Turning to “α1-Antitrypsin variant SYARox* (from UniProt P01009 25-418)”, the percentage inhibition, average (S2366 conversion) in test [1] worked out at 7%. Further, the percentage inhibition, average (L2120 conversion) in test [2] is 20%; in test [3], 97%. Further, the percentage inhibition, average (I1390 conversion) in test [4] was 0%. The percentage inhibition, average (I1140 conversion) in test [5] was 62%.

In test [1], “α1-Antitrypsin variant M358R (from UniProt P01009 25-418)” registered a percentage inhibition, average (S2366 conversion) of 94%. Besides, the percentage inhibition, average (L2120 conversion) was 94% in test [6], 90% in test [2] and 91.5% in test [3]. In addition, the percentage inhibition, average (I1390 conversion) in test [4] was determined as 100%. The substance further returned a percentage inhibition, average (I1140 conversion) in test [5] of 100%.

In turn, “α1-Antitrypsin variant SGQRox* (from UniProt P01009 25-418)” gave a percentage inhibition, average (S2366 conversion) in test [1] of 6.5%. Moreover, the figures for the percentage inhibition, average (L2120 conversion) in test [6], in test [2] and in test [3] were 4.5%, 4% and 88%, respectively. Further, the percentage inhibition, average (I1390 conversion) in test [4] turned out to be 5%. Further, the percentage inhibition, average (I1140 conversion) in test [5] is 14.5%.

“α1-Antitrypsin variant SMHRox* (from UniProt P01009 25-418)”: the percentage inhibition, average (S2366 conversion) in test [1] was found to be 34%. In addition, the percentage inhibition, average (L2120 conversion) was 18.3% in test [2] and 96.3% in test [3]. Moreover, the percentage inhibition, average (I1390 conversion) in test [4] was found to be 73%. This substance also returned a percentage inhibition, average (I1140 conversion) in test [5] of 10%.

In test [1], “α1-Antitrypsin variant SKGRox* (from UniProt P01009 25-418)” showed a percentage inhibition, average (S2366 conversion) of 0%. Besides, the percentage inhibition, average (L2120 conversion) in test [2] worked out at 22%; in test [3] it was 97%. The percentage inhibition, average (I1390 conversion) in test [4] came out at 37%. Moreover, in test [5], the percentage inhibition, average (I1140 conversion) came out at 7%.

In turn, “α1-Antitrypsin variant SVVKox* (from UniProt P01009 25-418)” displayed a percentage inhibition, average (S2366 conversion) in test [1] of 8%. Moreover, the percentage inhibition, average (L2120 conversion) in test [6] worked out at 4%; in test [2], 2%; in test [3] it was 55%. Besides, the percentage inhibition, average (I1390 conversion) in test [4] amounted to 95%. Further, the percentage inhibition, average (I1140 conversion) in test [5] came to 6%.

“α1-Antitrypsin variant SMDRox* (from UniProt P01009 25-418)” had a percentage inhibition, average (S2366 conversion) in test [1] of 0%. Moreover, the percentage inhibition, average (L2120 conversion) came to 4% in test [2] and 87% in test [3]. In addition, the percentage inhibition, average (I1390 conversion) in test [4] was 20%. The substance also displayed a percentage inhibition, average (I1140 conversion) in test [5] of 0%.

With “α1-Antitrypsin variant SMTRox*-GVGG (from UniProt P01009 25-418)”, the percentage inhibition, average (S2366 conversion) in test [1] stood at 3%. Moreover, the percentage inhibition, average (L2120 conversion) was determined as 9% in test [2] and 39% in test [3]. The same substance registered a percentage inhibition, average (I1390 conversion) in test [4] of 20%. The percentage inhibition, average (I1140 conversion) in test [5] is 3%.

“α1-Antitrypsin variant SLLRox* (from UniProt P01009 25-418)” registered a percentage inhibition, average (S2366 conversion) in test [1] of 9.7%. Besides, the percentage inhibition, average (L2120 conversion) in test [2] came out at 41%; in test [3], 97.7%. This substance yielded a percentage inhibition, average (I1390 conversion) in test [4] of 94.7%. This substance registered a percentage inhibition, average (I1140 conversion) in test [5] of 62.3%.

As to “α1-Antitrypsin variant SLGRox* (from UniProt P01009 25-418)”, the percentage inhibition, average (S2366 conversion) in test [1] turned out to be 1%. The percentage inhibition, average (L2120 conversion) was determined as 17.3% in test [2] and 95.5% in test [3]. Moreover, the percentage inhibition, average (I1390 conversion) in test [4] came to 5.3%. The percentage inhibition, average (I1140 conversion) in test [5] amounted to 9.5%.

“α1-Antitrypsin variant SDYKox* (from UniProt P01009 25-418)” displayed a percentage inhibition, average (S2366 conversion) in test [1] of 1%. Also, the percentage inhibition, average (L2120 conversion) turned out to be 7% in test [2] and 50% in test [3]. This substance also showed a percentage inhibition, average (I1390 conversion) in test [4] of 7%. Besides, in test [5], the percentage inhibition, average (I1140 conversion) was determined as 0%.
